According to the supplement of paper PMC12764529:
± gives the half width of the 95% confidence interval.

Columns and labels:
[1] = folding stability dG unfold (combined trypsin and chymotrypsin); higher = more stable
Procedure, shortened: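 Mini-proteins designed to be under 80 residues and free of cysteine were carried in a PA-tagged cDNA display construct and digested with trypsin and with chymotrypsin. Each protease was applied at 11 threefold-diluted concentrations, alongside a no-protease condition, before sequencing. K50 came from Bayesian fitting of the sequencing counts, and unfolding free energy was obtained by comparing it with a sequence-predicted unfolded-state K50 and a shared folded-state K50, for each protease separately or for both together. Designs were retained only if their AlphaFold2 dimer inter-PAE exceeded 15.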

[2] = folding stability dG unfold from trypsin proteolysis; higher = more stable
Protocol: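 Folding stability of de novo designed mini-proteins (<80 aa, no Cys; designed by TrROS, TrMRF, ProteinMPNN and the joint model) was measured by cDNA display proteolysis with trypsin and chymotrypsin. Each protease was used at 11 concentrations in a threefold dilution series plus a no-protease condition. K50 was inferred by Bayesian fitting of sequencing counts, and dG unfold was derived against a sequence-predicted unfolded-state K50 (Tsuboyama et al. method). Sequences shown include variable-length N-terminal GS-type padding (SAGGSAGG...) inside a display construct carrying a PA tag. Rows were kept only if the AF2 dimer inter-PAE was >15, to exclude likely homo-oligomers.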

Row | Sequence | folding stability dG unfold [1] | folding stability dG unfold [2]
1 | SAGGSAGGSAGEPEKPVLVKVILPGGKPLLIPGKREEAKKAVEELEKKGFPVEKAEVFDESAGGSAGGSAGG [r11_946_TrMRF] | < -1 kcal/mol | -0.485 ± 0.096 kcal/mol
2 | SAGGSAGGSAGERIPIKVSIHDPDGRMVPMEIKEIDPDDGTIEVKLPGLPPGIRSIHIMLSAGGSAGGSAGG [r17_260_TrROS] | < -1 kcal/mol | -1.01 ± 0.31 kcal/mol
3 | SAGGSAGGSAGGAMREVPIVLPFSPEMSEEEARALIEEELKRKGDPIAKLVIDKKSPALLSAGGSAGGSAGG [r7_703_JUSTAS] | < -1 kcal/mol | -0.687 ± 0.45 kcal/mol
4 | SAGGSAGGSAGGDVEVKEFTTTDPETGEEIIRVTETIPGNEKIVTTYTKDGKPISTKKILSAGGSAGGSAGG [r7_454_JUSTAS] | -0.528 ± 0.24 kcal/mol | -0.0907 ± 0.13 kcal/mol
5 | SAGGSAGGSAGGGSMTLSLDTRPEDGTLVLVSTFVDPASGLVSVTTTYPDSTVTTTLPVGSAGGSAGGSAGG [r7_402_JUSTAS] | 0.528 ± 0.087 kcal/mol | 0.998 ± 0.049 kcal/mol
6 | SAGGSAGGSAGGIWIPGDDIKEALKKMPPDVTKHIFNPDEGRWIMIKVNDNKIDIEPWPSAGGSAGGSAGGS [r10_137_TrROS] | -0.748 ± 0.36 kcal/mol | -0.392 ± 0.16 kcal/mol
7 | SAGGSAGGSAGGKEIPLDEVKDIQPSNDKWYVVFPGKPQRFPPDDIPIPPGKPIRIYPLSAGGSAGGSAGGS [r10_665_TrROS] | -0.154 ± 0.24 kcal/mol | 0.338 ± 0.058 kcal/mol
8 | SAGGSAGGSAGGKGWPTVEIPMPENGKPTPDSIEEIAEKFNMPNVEVEQSDDWHKIDVDSAGGSAGGSAGGS [r10_642_TrROS] | -0.295 ± 0.32 kcal/mol | 0.92 ± 0.047 kcal/mol
9 | SAGGSAGGSAGGKLVKVTFRTPGGGTLTVEVPPTESLTLPYGDKPILVDVKEDEVVFRDESAGGSAGGSAGG [r7_510_TrMRF] | -0.891 ± 0.44 kcal/mol | -0.572 ± 0.18 kcal/mol
10 | SAGGSAGGSAGGKPIYILAEHPSNGKVVLLPVDSPEKAIEFAKALADVPDFKIAHVDAFGSAGGSAGGSAGG [r11_951_TrMRF] | -0.287 ± 0.22 kcal/mol | 0.341 ± 0.052 kcal/mol
11 | SAGGSAGGSAGGLADLLKGKTFTVTFPEGDKPYPATFEPTADDTVRVGFPDGDSYPVPAAYQSAGGSAGGSA [r18_169_TrMRF] | < -1 kcal/mol | -0.466 ± 0.2 kcal/mol
12 | SAGGSAGGSAGGLKIQRFPDGNWYRIYLPNGNEHHIPMDEPIKVPNAKEPVKIEPVPPDDSAGGSAGGSAGG [r7_968_TrROS] | -0.961 ± 0.41 kcal/mol | -0.936 ± 0.28 kcal/mol
13 | SAGGSAGGSAGGMITKVTVTYLPGGEVSLTITDENGTPSEKTLSLAELKKYPDIPLELDPSAGGSAGGSAGG [r7_238_JUSTAS] | -0.374 ± 0.088 kcal/mol | 0.174 ± 0.05 kcal/mol
14 | SAGGSAGGSAGGMKVEVVDITGPPDLSPDATTTTKHPNGVTSTTTMTDPATRTSTIYTPESAGGSAGGSAGG [r11_362_JUSTAS] | < -1 kcal/mol | -0.899 ± 0.83 kcal/mol
15 | SAGGSAGGSAGGMKVSVSLDILETEVSPDGTVTATYKDESGEIRTITKYVEVKLKPGLASAGGSAGGSAGGS [r10_281_JUSTAS] | -0.237 ± 0.19 kcal/mol | -0.148 ± 0.067 kcal/mol
16 | SAGGSAGGSAGGMTEYVPGEGKVLVTYPDGTTKVVPVDPATPEEFRAELEAAGVPEIKPLSAGGSAGGSAGG [r7_139_JUSTAS] | 0.198 ± 0.085 kcal/mol | 0.762 ± 0.027 kcal/mol
17 | SAGGSAGGSAGGMTTITVKDKTKEEIEKELAEKYNVKKVTVTPIEGNSVKVEVEIEPLGSAGGSAGGSAGGS [r10_1219_JUSTAS] | -0.948 ± 0.46 kcal/mol | -0.216 ± 0.19 kcal/mol
18 | SAGGSAGGSAGGPEYIQINIKIYDPDNPKEREIPISMPVEEIEKIAKEFMPPGYRVEIISAGGSAGGSAGGS [r10_397_TrROS] | < -1 kcal/mol | 0.152 ± 0.14 kcal/mol
19 | SAGGSAGGSAGGPIKVKADKVTVEKRRNPENGKEYVELTVPGPGGTRTGRFPAEDLDKISAGGSAGGSAGGS [r10_447_TrROS] | < -1 kcal/mol | -0.654 ± 0.21 kcal/mol
20 | SAGGSAGGSAGGPKIDHVMLHRNPGNGRYNVTIKLRDPNGKPKDTIMVPMNDPEKILDALSAGGSAGGSAGG [r7_484_TrROS] | -0.652 ± 0.22 kcal/mol | -0.0862 ± 0.06 kcal/mol
21 | SAGGSAGGSAGGPMSNVVEEVVSVEVTNPGLPDSRFVTNPEPGVPLPVPRTVPVVIVLRASAGGSAGGSAGG [r11_257_JUSTAS] | < -1 kcal/mol | -0.602 ± 0.33 kcal/mol
22 | SAGGSAGGSAGGPSDVTLLEEEVEELPNGTIKTRYTFKLPNGELAEAESTTPLEGPFHHSAGGSAGGSAGGS [r10_532_JUSTAS] | -0.463 ± 0.26 kcal/mol | -0.0802 ± 0.2 kcal/mol
23 | SAGGSAGGSAGGRIRLPNMPPGHDMEIKSIKVPEPGPVKLTIEPPGSDKKQERYMPPDDISAGGSAGGSAGG [r7_342_TrROS] | < -1 kcal/mol | 0.0711 ± 0.23 kcal/mol
24 | SAGGSAGGSAGGRITINPENGMVQIKGPNGNQHTFPMDDASELQKEFGLPNIDIEVFPPNSAGGSAGGSAGG [r7_235_TrROS] | -0.145 ± 0.22 kcal/mol | 0.292 ± 0.15 kcal/mol
